Laboratory results published in the RNAGym collection of RNA variant scans (doi:10.7554/elife.90254).

B1: OR4K15 (parent)
chain: GUUAACGGUCAUAGGCCAUGGAAACUAGGAGCACCAUUUCGCUGCCAGUGAAGAAAUGAACAAAGAAAAUCUGGGCCAGGCAGGCAUCAAAAGAAAUAGUCUUGCGCUCAACCAGAAAGUCUGUAAUCAUUUUAAGGGUA

Variants of: B1
Assay: self-cleavage, relative activity (ratio to wild type); higher = more cleavage; in vitro, sequencing; the parent is a self-cleaving ribozyme

Variant	self-cleavage
A69U U102C	2.2
A52C A118G	0.72
A64U U72A	0.05
U12C U49G	0.74
A52U A82U	0.2
G14U A82U	0.13
A11U U19C	1.85
G48A A64U	1.63
A60G U100A	0.52
A18U A126G	1.86
G83U U108C	0.02
U102C U124A	0.97
U57G A126G	0.52
A36C A91G	1.81
G14A U19C	1.44
A63G A95G	2.26
U70A U139A	0.23
A114U U130C	0.01
A62G G80A	0.35
A64G A91C	1.76
U103C G138C	0.95
A54G A96U	2.04
A90U A116U	0.24
U43A A135U	2.21

Variant	self-cleavage
A64U U130C	1.12
A68G U108C	0.01
G8A A55G	2.14
A11G A66G	0.88
A98G A117U	0.3
G14U A66G	0.9
U37C U133C	1.16
U38A U100C	2.23
U38A A67G	0.89
C35U U103C	0.29
U70A C77U	2.04
G1A U102G	1.23
A59G A135U	1.55
U72A U100C	0.4
A64G A69U	1.58
A82G A98G	0.27
A13U A86G	1.62
A82C C105U	0.02
A67U U97C	1.43
U9G G83A	1.07
A129G U133C	1.42
A129G U139A	0.81
U103A U120C	0.34
U9A	1.01

Variant	self-cleavage
A18G U103C	1.04
A33G U43C	0.71
A22G U127A	2.2
A24G G73A	0.29
U2C A24C	1.16
U26C A86G	1.33
A5G U139A	1.6
A51G A114G	1.1
A5G A27U	0.96
G14A A59G	1.27
U131C A140U	1.59
A51G G74U	0.37
A23U U26C	1.23
G31U A118G	1.06
A60U G115A	0.29
A18U U108C	0.01
C113U	0.08
A82C A114U	0.02
A118G U120A	2.61
A67G A82G	0.6
A51U U127C	0.76
A64G U131C	1.2
A60G C121U	1.48
A90U A98U	2.21

Variant	self-cleavage
U19A C77U	1.25
A22G A129U	0.78
A18G A33G	0.97
G14U A116U	0.11
U9A A91G	0.37
A13U A52U	1.26
A60G U108A	0.02
A66G G104C	0.01
A67G U72C	0.32
A110U A118G	0.72
A110U U131C	0.65
A13G A54G	0.81
U2C A94G	1.08
G21A G106A	0.02
A24C A64G	1.74
U97G A98G	1.98
G41A U133C	1.98
A47G G138A	1.31
A30U U38C	1.69
U2C A66U	0.2
G15U A126U	0.79
U9A U122C	0.88
U26G A62G	1.02
A30C A111G	0.07

Variant	self-cleavage
A114C U122G	0.01
U57A G106A	0.01
U72A A92U	0.13
A23G U37C	1.03
A18U A111G	0.03
G53U A118G	1.67
A116U A118G	0.07
A54U U102C	1.59
U9C U120G	1.39
A117U A125G	0.99
A47G A78G	0.26
A86G U97A	0.97
A90G A140U	0.74
U9A A64G	1.1
A91G A116G	0.55
A90G A134U	1.49
C40U U97A	1.63
A96G U100A	0.78
A78G A91U	0.22
U12G A60G	1.59
U49G A92G	0.7
U19C A125U	2.21
A98U U120C	1.65
C40U U103C	0.96

Variant	self-cleavage
A30U U127C	0.71
A91G U127C	0.78
A54G A125G	0.81
U19C A59U	0.81
U131C A140G	0.47
U37C U103G	0.02
A78C U108A	0.01
A64G C105U	0.12
G14U A135C	1.41
U38G A62G	1.59
U122C G138U	1.37
A5U U122A	1.48
A36U U132C	1.2
G29C U108A	0.02
A51U U139A	1.14
G1U	1.07
A33C G50U	1.41
A62C U120C	0.93
A59U A111U	0.13
U100C A135U	2.37
A36U U100C	2.44
A67G C121A	2.73
A4G G138A	0.99
A68G U133C	1.87

Variant	self-cleavage
A51G A68C	1.46
G41A A135G	0.99
U70C A114U	0.02
A111G A135G	0.02
G44A A82U	0.23
U2C G48U	0.43
A94G U127A	2.55
A54C A60U	1.33
U19C A33G	0.62
U38A U97C	1.67
G21A A114U	0.05
A91G A110U	0.36
A47C U120A	2.24
C25A U38C	1.05
U87C U103G	0.01
U39C	1.34
A51U A125U	1.64
A33U U127C	1
A59G A62U	1.32
U38C A67U	2.33
A36U U70G	1.53
U9C A114G	0.64
A96U U120C	1.17
